Tests used:
[1] = molecular target: T1, IL-20RA (expressed alone on BHK cells) (human, UniProt Q9UHF4 30-553); experiment: radiolabeled ligand binding on stably transfected BHK cells
T1 construct: BHK cells stably transfected with IL-20RA only; also called ZcytoR7; IL-20 receptor alpha chain
T1 sequence: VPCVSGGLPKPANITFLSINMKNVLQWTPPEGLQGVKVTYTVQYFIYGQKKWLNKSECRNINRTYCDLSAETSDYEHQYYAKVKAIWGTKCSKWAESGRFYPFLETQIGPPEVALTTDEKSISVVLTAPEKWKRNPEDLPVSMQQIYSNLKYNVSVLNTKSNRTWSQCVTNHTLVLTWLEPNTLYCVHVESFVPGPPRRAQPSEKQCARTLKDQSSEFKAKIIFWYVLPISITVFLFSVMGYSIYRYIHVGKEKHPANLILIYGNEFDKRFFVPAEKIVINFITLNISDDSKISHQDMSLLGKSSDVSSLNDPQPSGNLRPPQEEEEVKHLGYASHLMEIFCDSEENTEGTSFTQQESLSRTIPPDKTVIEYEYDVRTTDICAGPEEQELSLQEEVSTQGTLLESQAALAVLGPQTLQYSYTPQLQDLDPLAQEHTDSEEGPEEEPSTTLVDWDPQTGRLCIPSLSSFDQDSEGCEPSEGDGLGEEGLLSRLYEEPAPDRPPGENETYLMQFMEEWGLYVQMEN
Protocol: (§1) The specificity and affinity of IL-20 for its receptor was determined using BHK cells stably transfected with IL-20RA, IL-20RB or both receptor subunits. […] Binding of ¹²⁵I-labeled IL-20 was eliminated in the presence of 100-fold excess of unlabeled IL-20 but not with 100-fold excess of the unrelated cytokine, IL-21.

[2] = molecular target: T2, IL-20RB (expressed alone on BHK cells) (human, UniProt Q6UXL0 30-311); experiment: as above
T2 construct: BHK cells stably transfected with IL-20RB only; also called DIRS1; IL-20 receptor beta chain
T2 sequence: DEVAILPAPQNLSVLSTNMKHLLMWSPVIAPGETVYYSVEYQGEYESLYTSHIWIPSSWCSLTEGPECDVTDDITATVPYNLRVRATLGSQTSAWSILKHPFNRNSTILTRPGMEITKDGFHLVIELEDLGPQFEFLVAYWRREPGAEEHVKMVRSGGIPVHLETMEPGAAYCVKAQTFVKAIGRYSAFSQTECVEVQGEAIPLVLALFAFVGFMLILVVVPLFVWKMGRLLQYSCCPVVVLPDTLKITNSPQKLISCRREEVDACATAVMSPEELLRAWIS
Protocol: as §1

[3] = molecular target: T3, IL-20RA/IL-20RB heterodimeric receptor (human, UniProt Q9UHF4 30-553; Q6UXL0 30-311); experiment: 125I-labeled IL-20 binding on BHK cells expressing IL-20RA and IL-20RB
T3 construct: Both subunits co-expressed on transfected COS, BHK or BaF3 cells, or endogenous on HaCaT keratinocytes; also called IL-20RB/IL-20RA heterodimer; IL-20 receptor
T3 sequence 1: T1 sequence
T3 sequence 2: T2 sequence
Protocol: as §1

B1: IL-20 (Interleukin-20) (ligand, UniProt Q9NYY1 25-176, looked up)
chain: LKTLNLGSCVIATNLQEIRNGFSEIRGSVQAKDGNIDIRILRRTESLQDTKPANRCCLLRHLLRLYLDRVFKNYQTPDHYTLRKISSLANSFLTIKKDLRLCHAHMTCHCGEEAMKKYSQILSHFEKLEPQAAVVKALGELDILLQWMEETE
notes: also called Zcyto10; IL-20 protein
- binding result [1]: no binding
- binding result [2]: no binding
- Kd [3]: ~1.5 nM
